These results are taken from patent US20090285771A1.

This assay has as its target growth hormone (GH) receptor (mouse) (UniProt P16882). Nature of the assay: cell-based or functional assay.

For the substance “recombinant rat growth hormone (from UniProt P01244 27-216) (ligand)”, the GH receptor mRNA expression levels in the liver (quantitative RT-PCR, normalized to GAPDH, % of control), 60 minutes after 30 µg subcutaneous rGH in BALB/c mice (% of level prior to administration) was 65 and the IGF-1-BP3 mRNA expression levels in the liver (quantitative RT-PCR, normalized to GAPDH, % of control), 60 minutes after 30 µg subcutaneous rGH in BALB/c mice is 250 % increase.
